According to patent publication US6261569:

Target: riMod, retro-inverso model peptide
Assay: ELISA, immobilised riMod-BSA

For “non-immune mouse serum (polyclonal serum or antibody)”, the titre (reciprocal of highest serum dilution) was 80.
